Experimental data taken from US20140087995A1 (published 2014).
Numbered stars: 1 amine (or outer) side, 2 acyl side, 3 side chain; on linkers, the order of the positions; unused ones are H or OH. Bridge positions count the residues as written; N and C are the ends. Side chains are listed from the residue outwards. Ends that are not written are not given here. * marks the point of attachment. C20 diacid = O=C(O)CCCCCCCCCCCCCCCCCCC(=O)*; γGlu = O=C(O)[C@H](CCC(=O)[*:2])N[*:1]; AEEA = NCCOCCOCC(=O)O

T1: human amylin receptor (amylin 3(a) receptor: human calcitonin receptor co-expressed with RAMP-3) (human, UniProt P30988 25-474; O60896 24-148, limits assumed)
T1 sequence (looked up) 1: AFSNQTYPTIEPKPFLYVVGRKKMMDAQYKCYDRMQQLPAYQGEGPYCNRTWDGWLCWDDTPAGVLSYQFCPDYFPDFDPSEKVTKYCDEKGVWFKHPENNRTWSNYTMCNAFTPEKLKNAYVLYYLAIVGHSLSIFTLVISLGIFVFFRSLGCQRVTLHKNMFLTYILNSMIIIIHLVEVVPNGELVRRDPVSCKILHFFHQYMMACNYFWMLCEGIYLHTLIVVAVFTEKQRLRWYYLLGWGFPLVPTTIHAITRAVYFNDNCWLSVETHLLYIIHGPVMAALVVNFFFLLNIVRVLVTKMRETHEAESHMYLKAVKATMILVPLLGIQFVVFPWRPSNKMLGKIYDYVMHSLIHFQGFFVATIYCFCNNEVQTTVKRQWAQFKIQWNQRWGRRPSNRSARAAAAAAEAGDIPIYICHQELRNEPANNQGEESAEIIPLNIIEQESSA
T1 sequence (looked up) 2: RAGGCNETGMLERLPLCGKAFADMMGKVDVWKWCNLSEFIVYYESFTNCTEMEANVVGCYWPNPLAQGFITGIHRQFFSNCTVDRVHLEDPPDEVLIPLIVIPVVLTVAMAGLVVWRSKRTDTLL

T2: human calcitonin receptor (human, UniProt P30988 25-474)
T2 sequence (looked up): T1 sequence (looked up) 1

B1: N^ε1-[(4S)-4-carboxy-4-[[(4S)-4-carboxy-4-(19-carboxynonadecanoylamino)butanoyl]amino]butanoyl]-[Arg17,Pro21,Pro27,His34]-h-amylin (peptide)
peptide: K([γGlu-γGlu-C20 diacid])CNTATCATQRLANFLRHSSPNFGAIPSSTNVGHNTY-NH2
modifications: disulfide 2-7; N-terminus assumed
SMILES: CC[C@H](C)[C@H](NC(=O)[C@H](C)NC(=O)CNC(=O)[C@H](Cc1ccccc1)NC(=O)[C@H](CC(N)=O)NC(=O)[C@@H]1CCCN1C(=O)[C@H](CO)NC(=O)[C@H](CO)NC(=O)[C@H](Cc1c[nH]cn1)NC(=O)[C@H](CCCNC(=N)N)NC(=O)[C@H](CC(C)C)NC(=O)[C@H](Cc1ccccc1)NC(=O)[C@H](CC(N)=O)NC(=O)[C@H](C)NC(=O)[C@H](CC(C)C)NC(=O)[C@H](CCCNC(=N)N)NC(=O)[C@H](CCC(N)=O)NC(=O)[C@@H](NC(=O)[C@H](C)NC(=O)[C@@H]1CSSC[C@H](NC(=O)[C@@H](N)CCCCNC(=O)CC[C@H](NC(=O)CC[C@H](NC(=O)CCCCCCCCCCCCCCCCCCC(=O)O)C(=O)O)C(=O)O)C(=O)N[C@@H](CC(N)=O)C(=O)N[C@@H]([C@@H](C)O)C(=O)N[C@@H](C)C(=O)N[C@@H]([C@@H](C)O)C(=O)N1)[C@@H](C)O)C(=O)N1CCC[C@H]1C(=O)N[C@@H](CO)C(=O)N[C@@H](CO)C(=O)N[C@H](C(=O)N[C@@H](CC(N)=O)C(=O)N[C@H](C(=O)NCC(=O)N[C@@H](Cc1c[nH]cn1)C(=O)N[C@@H](CC(N)=O)C(=O)N[C@H](C(=O)N[C@@H](Cc1ccc(O)cc1)C(N)=O)[C@@H](C)O)C(C)C)[C@@H](C)O
notes: also called compound 86
B2: N^ε1-[(4S)-4-carboxy-4-[[(4S)-4-carboxy-4-(19-carboxynonadecanoylamino)butanoyl]amino]butanoyl]-[Glu14,Arg17,Pro21,Pro27,Arg34]-h-amylin (peptide)
peptide: K([γGlu-γGlu-C20 diacid])CNTATCATQRLAEFLRHSSPNFGAIPSSTNVGRNTY-NH2
modifications: disulfide 2-7; N-terminus assumed
SMILES: CC[C@H](C)[C@H](NC(=O)[C@H](C)NC(=O)CNC(=O)[C@H](Cc1ccccc1)NC(=O)[C@H](CC(N)=O)NC(=O)[C@@H]1CCCN1C(=O)[C@H](CO)NC(=O)[C@H](CO)NC(=O)[C@H](Cc1c[nH]cn1)NC(=O)[C@H](CCCNC(=N)N)NC(=O)[C@H](CC(C)C)NC(=O)[C@H](Cc1ccccc1)NC(=O)[C@H](CCC(=O)O)NC(=O)[C@H](C)NC(=O)[C@H](CC(C)C)NC(=O)[C@H](CCCNC(=N)N)NC(=O)[C@H](CCC(N)=O)NC(=O)[C@@H](NC(=O)[C@H](C)NC(=O)[C@@H]1CSSC[C@H](NC(=O)[C@@H](N)CCCCNC(=O)CC[C@H](NC(=O)CC[C@H](NC(=O)CCCCCCCCCCCCCCCCCCC(=O)O)C(=O)O)C(=O)O)C(=O)N[C@@H](CC(N)=O)C(=O)N[C@@H]([C@@H](C)O)C(=O)N[C@@H](C)C(=O)N[C@@H]([C@@H](C)O)C(=O)N1)[C@@H](C)O)C(=O)N1CCC[C@H]1C(=O)N[C@@H](CO)C(=O)N[C@@H](CO)C(=O)N[C@H](C(=O)N[C@@H](CC(N)=O)C(=O)N[C@H](C(=O)NCC(=O)N[C@@H](CCCNC(=N)N)C(=O)N[C@@H](CC(N)=O)C(=O)N[C@H](C(=O)N[C@@H](Cc1ccc(O)cc1)C(N)=O)[C@@H](C)O)C(C)C)[C@@H](C)O
notes: also called compound 88
B3: N^ε1-[(4S)-4-carboxy-4-[[(4S)-4-carboxy-4-(19-carboxynonadecanoylamino)butanoyl]amino]butanoyl]-[Glu14,Arg17,Pro21,Pro27,Arg35]-h-amylin (peptide)
peptide: K([γGlu-γGlu-C20 diacid])CNTATCATQRLAEFLRHSSPNFGAIPSSTNVGSRTY-NH2
modifications: disulfide 2-7; N-terminus assumed
SMILES: CC[C@H](C)[C@H](NC(=O)[C@H](C)NC(=O)CNC(=O)[C@H](Cc1ccccc1)NC(=O)[C@H](CC(N)=O)NC(=O)[C@@H]1CCCN1C(=O)[C@H](CO)NC(=O)[C@H](CO)NC(=O)[C@H](Cc1c[nH]cn1)NC(=O)[C@H](CCCNC(=N)N)NC(=O)[C@H](CC(C)C)NC(=O)[C@H](Cc1ccccc1)NC(=O)[C@H](CCC(=O)O)NC(=O)[C@H](C)NC(=O)[C@H](CC(C)C)NC(=O)[C@H](CCCNC(=N)N)NC(=O)[C@H](CCC(N)=O)NC(=O)[C@@H](NC(=O)[C@H](C)NC(=O)[C@@H]1CSSC[C@H](NC(=O)[C@@H](N)CCCCNC(=O)CC[C@H](NC(=O)CC[C@H](NC(=O)CCCCCCCCCCCCCCCCCCC(=O)O)C(=O)O)C(=O)O)C(=O)N[C@@H](CC(N)=O)C(=O)N[C@@H]([C@@H](C)O)C(=O)N[C@@H](C)C(=O)N[C@@H]([C@@H](C)O)C(=O)N1)[C@@H](C)O)C(=O)N1CCC[C@H]1C(=O)N[C@@H](CO)C(=O)N[C@@H](CO)C(=O)N[C@H](C(=O)N[C@@H](CC(N)=O)C(=O)N[C@H](C(=O)NCC(=O)N[C@@H](CO)C(=O)N[C@@H](CCCNC(=N)N)C(=O)N[C@H](C(=O)N[C@@H](Cc1ccc(O)cc1)C(N)=O)[C@@H](C)O)C(C)C)[C@@H](C)O
notes: also called compound 89
B4: N^ε21-[(4S)-4-carboxy-4-[[(4S)-4-carboxy-4-(19-carboxynonadecanoylamino)butanoyl]amino]butanoyl]-[Asp14,Arg17,Lys21,Pro27,Asp35]-h-amylin (peptide)
peptide: KCNTATCATQRLADFLRHSSK([γGlu-γGlu-C20 diacid])NFGAIPSSTNVGSDTY-NH2
modifications: disulfide 2-7; N-terminus assumed
SMILES: CC[C@H](C)[C@H](NC(=O)[C@H](C)NC(=O)CNC(=O)[C@H](Cc1ccccc1)NC(=O)[C@H](CC(N)=O)NC(=O)[C@H](CCCCNC(=O)CC[C@H](NC(=O)CC[C@H](NC(=O)CCCCCCCCCCCCCCCCCCC(=O)O)C(=O)O)C(=O)O)NC(=O)[C@H](CO)NC(=O)[C@H](CO)NC(=O)[C@H](Cc1c[nH]cn1)NC(=O)[C@H](CCCNC(=N)N)NC(=O)[C@H](CC(C)C)NC(=O)[C@H](Cc1ccccc1)NC(=O)[C@H](CC(=O)O)NC(=O)[C@H](C)NC(=O)[C@H](CC(C)C)NC(=O)[C@H](CCCNC(=N)N)NC(=O)[C@H](CCC(N)=O)NC(=O)[C@@H](NC(=O)[C@H](C)NC(=O)[C@@H]1CSSC[C@H](NC(=O)[C@@H](N)CCCCN)C(=O)N[C@@H](CC(N)=O)C(=O)N[C@@H]([C@@H](C)O)C(=O)N[C@@H](C)C(=O)N[C@@H]([C@@H](C)O)C(=O)N1)[C@@H](C)O)C(=O)N1CCC[C@H]1C(=O)N[C@@H](CO)C(=O)N[C@@H](CO)C(=O)N[C@H](C(=O)N[C@@H](CC(N)=O)C(=O)N[C@H](C(=O)NCC(=O)N[C@@H](CO)C(=O)N[C@@H](CC(=O)O)C(=O)N[C@H](C(=O)N[C@@H](Cc1ccc(O)cc1)C(N)=O)[C@@H](C)O)C(C)C)[C@@H](C)O
notes: also called compound 59
B5: N^ε1-[(4S)-4-carboxy-4-(19-carboxynonadecanoylamino)butanoyl]-[His14,Arg17,Pro21,Pro27]-h-amylin (peptide)
peptide: K([γGlu-C20 diacid])CNTATCATQRLAHFLRHSSPNFGAIPSSTNVGSNTY-NH2
modifications: disulfide 2-7; N-terminus assumed
SMILES: CC[C@H](C)[C@H](NC(=O)[C@H](C)NC(=O)CNC(=O)[C@H](Cc1ccccc1)NC(=O)[C@H](CC(N)=O)NC(=O)[C@@H]1CCCN1C(=O)[C@H](CO)NC(=O)[C@H](CO)NC(=O)[C@H](Cc1c[nH]cn1)NC(=O)[C@H](CCCNC(=N)N)NC(=O)[C@H](CC(C)C)NC(=O)[C@H](Cc1ccccc1)NC(=O)[C@H](Cc1c[nH]cn1)NC(=O)[C@H](C)NC(=O)[C@H](CC(C)C)NC(=O)[C@H](CCCNC(=N)N)NC(=O)[C@H](CCC(N)=O)NC(=O)[C@@H](NC(=O)[C@H](C)NC(=O)[C@@H]1CSSC[C@H](NC(=O)[C@@H](N)CCCCNC(=O)CC[C@H](NC(=O)CCCCCCCCCCCCCCCCCCC(=O)O)C(=O)O)C(=O)N[C@@H](CC(N)=O)C(=O)N[C@@H]([C@@H](C)O)C(=O)N[C@@H](C)C(=O)N[C@@H]([C@@H](C)O)C(=O)N1)[C@@H](C)O)C(=O)N1CCC[C@H]1C(=O)N[C@@H](CO)C(=O)N[C@@H](CO)C(=O)N[C@H](C(=O)N[C@@H](CC(N)=O)C(=O)N[C@H](C(=O)NCC(=O)N[C@@H](CO)C(=O)N[C@@H](CC(N)=O)C(=O)N[C@H](C(=O)N[C@@H](Cc1ccc(O)cc1)C(N)=O)[C@@H](C)O)C(C)C)[C@@H](C)O
notes: also called compound 70
B6: N^ε1-[2-[2-[2-(19-carboxynonadecanoylamino)ethoxy]ethoxy]acetyl]-[His14,Arg17,Pro21,Pro27]-h-amylin (peptide)
peptide: K([AEEA-C20 diacid])CNTATCATQRLAHFLRHSSPNFGAIPSSTNVGSNTY-NH2
modifications: disulfide 2-7; N-terminus assumed
SMILES: CC[C@H](C)[C@H](NC(=O)[C@H](C)NC(=O)CNC(=O)[C@H](Cc1ccccc1)NC(=O)[C@H](CC(N)=O)NC(=O)[C@@H]1CCCN1C(=O)[C@H](CO)NC(=O)[C@H](CO)NC(=O)[C@H](Cc1c[nH]cn1)NC(=O)[C@H](CCCNC(=N)N)NC(=O)[C@H](CC(C)C)NC(=O)[C@H](Cc1ccccc1)NC(=O)[C@H](Cc1c[nH]cn1)NC(=O)[C@H](C)NC(=O)[C@H](CC(C)C)NC(=O)[C@H](CCCNC(=N)N)NC(=O)[C@H](CCC(N)=O)NC(=O)[C@@H](NC(=O)[C@H](C)NC(=O)[C@@H]1CSSC[C@H](NC(=O)[C@@H](N)CCCCNC(=O)COCCOCCNC(=O)CCCCCCCCCCCCCCCCCCC(=O)O)C(=O)N[C@@H](CC(N)=O)C(=O)N[C@@H]([C@@H](C)O)C(=O)N[C@@H](C)C(=O)N[C@@H]([C@@H](C)O)C(=O)N1)[C@@H](C)O)C(=O)N1CCC[C@H]1C(=O)N[C@@H](CO)C(=O)N[C@@H](CO)C(=O)N[C@H](C(=O)N[C@@H](CC(N)=O)C(=O)N[C@H](C(=O)NCC(=O)N[C@@H](CO)C(=O)N[C@@H](CC(N)=O)C(=O)N[C@H](C(=O)N[C@@H](Cc1ccc(O)cc1)C(N)=O)[C@@H](C)O)C(C)C)[C@@H](C)O
notes: also called compound 90

Biological target: T1, human amylin receptor (amylin 3(a) …)
Test: cell-based or functional assay

Row | Ratio hCT/hAmylin funct. | hAmylin-R funct. EC50 | Binder
1 | 64.4 | 298 pM | B1
2 | 8.5 | 773 pM | B2
3 | 27.8 | 404 pM | B3
4 |  | 389 pM | B4
5 |  | 40 pM | B5
6 | 7.2 | 33 pM | B6

Biological target: T2, human calcitonin receptor
Test: cell-based or functional assay

Row | hCTR funct. EC50 | Binder
7 | 19200 pM | B1
8 | 6560 pM | B2
9 | 11200 pM | B3
10 | 1950 pM | B4
11 | 715 pM | B5
12 | 236 pM | B6
